Measured values taken from patent US20050059597A1.

Biological target: PSD-95, endogenous, in cultured cortical neurons (mouse) (UniProt Q62108)
Assay: cell-based or functional assay

Sequence of PSD-95, endogenous, in cultured cortical neurons (mouse) (Q62108 whole entry): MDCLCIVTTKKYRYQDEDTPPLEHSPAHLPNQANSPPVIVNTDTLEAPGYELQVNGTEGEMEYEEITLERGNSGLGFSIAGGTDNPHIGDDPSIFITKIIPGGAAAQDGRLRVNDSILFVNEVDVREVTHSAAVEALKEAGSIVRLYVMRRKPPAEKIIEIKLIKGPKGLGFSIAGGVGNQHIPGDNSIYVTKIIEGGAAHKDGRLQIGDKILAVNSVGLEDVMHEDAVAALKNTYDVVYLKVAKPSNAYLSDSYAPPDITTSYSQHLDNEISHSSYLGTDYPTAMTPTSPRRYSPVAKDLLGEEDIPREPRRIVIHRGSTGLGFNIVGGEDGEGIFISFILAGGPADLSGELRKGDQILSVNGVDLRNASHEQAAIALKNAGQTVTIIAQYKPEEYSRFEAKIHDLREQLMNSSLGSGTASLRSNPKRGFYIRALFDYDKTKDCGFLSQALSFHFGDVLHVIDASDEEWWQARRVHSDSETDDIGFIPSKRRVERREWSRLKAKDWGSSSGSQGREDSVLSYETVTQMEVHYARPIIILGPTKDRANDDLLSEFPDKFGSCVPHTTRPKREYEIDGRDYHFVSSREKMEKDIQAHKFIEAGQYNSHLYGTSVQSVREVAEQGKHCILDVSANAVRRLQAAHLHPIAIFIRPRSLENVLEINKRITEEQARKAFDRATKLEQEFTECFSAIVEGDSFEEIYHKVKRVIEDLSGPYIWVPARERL

## Tat-NR2B9c (peptide)
  NMDA-evoked cGMP production in cortical cultures (surrogate of NO production by nNOS): 39.5%
